Results as given in the supplement of paper PMC10126150.
± gives the standard deviation of the averaged measurements.

Test system: ATP
Experiment: switch fluorescence ratio, 500 uM ATP over buffer (Cy3 cluster intensity, sum of 5 cycles each) (fold (ratio)); higher = stronger signal-on switching upon ATP binding; sequences stand for … in TCGTCGGCAGCGTCAGATGTGTATAAGAGACAGTTTTTTTTTTTTTTTTTTTTTTTTT…TC
Conditions: aptamer strand: ATP DNA aptamer (quencher-CACCTGGGGGAGTATTGCGGAGGAAGG + anchor), 100 nM annealed; ATP concentration: 500 uM
In short: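 Cy3-labelled switching-strand clusters on a modified Illumina MiSeq flow-cell were annealed to 100 nM quencher-labelled ATP aptamer, imaged in selection buffer, then imaged after 15 min with 500 uM ATP at 22 °C. Five buffer/ATP cycles ran, with NaOH stripping and re-annealing between them. The fluorescence ratio is summed target-cycle over summed buffer-cycle Cy3 intensity per cluster, averaged per switch-domain sequence. Clusters outside 100-1000 RFU were excluded.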
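Note: ATP exposure 15 min at 22 °C before imaging.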

GGGCATGTCT gave a switch fluorescence ratio of 1.03 ± 0.042.
GGGCATTGCT gave a switch fluorescence ratio of 0.9747 ± 0.0069.
GGGCCAGGGA was tested, and the switch fluorescence ratio was 1 ± 0.024.
GGGCCAGTAT gave a switch fluorescence ratio of 0.963 ± 0.017.
Sequence GGGCCATCGT has a switch fluorescence ratio of 0.993 ± 0.026.
With GGGCCCAAAG the switch fluorescence ratio was 1 ± 0.021.
In the case of GGGCCCGAAT, the switch fluorescence ratio is reported as 0.992 ± 0.047.
For GGGCCCGCGT, the switch fluorescence ratio was 0.98 ± 0.011.
GGGCCCTTCG gave a switch fluorescence ratio of 1.018 ± 0.0047.
For GGGCCGGAAA, the switch fluorescence ratio was 1.01 ± 0.049.
GGGCCGGGGT was tested, and the switch fluorescence ratio was 0.993 ± 0.04.
GGGCCGTAGG was tested, and the switch fluorescence ratio was 0.99 ± 0.037.
GGGCCGTTGG was tested, and the switch fluorescence ratio was 0.976 ± 0.042.
GGGCCTCGGA was tested, and the switch fluorescence ratio was 0.988 ± 0.042.
In the case of GGGCGAGAGG, the switch fluorescence ratio is reported as 1.02 ± 0.033.
In the case of GGGCGAGCCT, the switch fluorescence ratio is reported as 1.028 ± 0.008.
GGGCGAGTAT was tested, and the switch fluorescence ratio was 1.016 ± 0.0029.
In the case of GGGCGATGCA, the switch fluorescence ratio is reported as 1.02 ± 0.028.
GGGCGCCATA was tested, and the switch fluorescence ratio was 0.948 ± 0.015.
GGGCGGAGCG showed a switch fluorescence ratio of 0.999 ± 0.036.
GGGCGGGATT gave a switch fluorescence ratio of 1 ± 0.059.
GGGCGGGCAG gave a switch fluorescence ratio of 0.997 ± 0.026.
For GGGCGGGCGC, the switch fluorescence ratio was 1.06 ± 0.027.
Sequence GGGCGTTATG has a switch fluorescence ratio of 1.0238 ± 0.00033.
Sequence GGGCTAAAGG has a switch fluorescence ratio of 1.04 ± 0.03.
For GGGCTAAATC, the switch fluorescence ratio was 1.01 ± 0.06.
GGGCTAACCT was tested, and the switch fluorescence ratio was 1.32 ± 0.043.
GGGCTAATAA gave a switch fluorescence ratio of 1.02 ± 0.039.
In the case of GGGCTAATGT, the switch fluorescence ratio is reported as 0.988 ± 0.047.
Sequence GGGCTACTTG has a switch fluorescence ratio of 0.9881 ± 0.0021.
GGGCTAGCCA gave a switch fluorescence ratio of 0.979 ± 0.011.
In the case of GGGCTATGTC, the switch fluorescence ratio is reported as 1.01 ± 0.038.
GGGCTATTTA showed a switch fluorescence ratio of 1 ± 0.011.
GGGCTCTAAA was tested, and the switch fluorescence ratio was 1 ± 0.018.
GGGCTGCGGA was tested, and the switch fluorescence ratio was 0.976 ± 0.051.
Sequence GGGCTGGACG has a switch fluorescence ratio of 1 ± 0.043.
GGGCTGGATT gave a switch fluorescence ratio of 1.01 ± 0.036.
For GGGCTGGGGA, the switch fluorescence ratio was 1.01 ± 0.033.
Sequence GGGCTGGGGG has a switch fluorescence ratio of 1.01 ± 0.057.
Sequence GGGCTGGGGT has a switch fluorescence ratio of 0.997 ± 0.038.
In the case of GGGCTGTTTG, the switch fluorescence ratio is reported as 0.95379 ± 2.9e-05.
GGGCTTAGTG was tested, and the switch fluorescence ratio was 0.993 ± 0.0066.
For GGGCTTCCGT, the switch fluorescence ratio was 1.089 ± 0.0068.
In the case of GGGCTTGGCG, the switch fluorescence ratio is reported as 1.0275 ± 0.00013.
For GGGCTTGTGT, the switch fluorescence ratio was 0.993 ± 0.032.
Sequence GGGCTTTGGC has a switch fluorescence ratio of 1 ± 0.025.
GGGCTTTGTG was tested, and the switch fluorescence ratio was 1 ± 0.01.
For GGGGAAAAGT, the switch fluorescence ratio was 1.01 ± 0.029.
In the case of GGGGAAAGTT, the switch fluorescence ratio is reported as 0.988 ± 0.043.
GGGGAACAGT showed a switch fluorescence ratio of 0.979 ± 0.043.
GGGGAAGGAA gave a switch fluorescence ratio of 0.998 ± 0.027.
GGGGAAGGAG was tested, and the switch fluorescence ratio was 0.977 ± 0.029.
With GGGGAAGGGT the switch fluorescence ratio was 1.08 ± 0.23.
For GGGGAAGTAT, the switch fluorescence ratio was 0.985 ± 0.014.
GGGGAATAGT gave a switch fluorescence ratio of 1.26 ± 0.32.
In the case of GGGGAATCCT, the switch fluorescence ratio is reported as 1.036 ± 0.0077.
GGGGAATCGT gave a switch fluorescence ratio of 0.948 ± 0.027.
GGGGACACAG gave a switch fluorescence ratio of 0.979 ± 0.015.
GGGGACCAAC showed a switch fluorescence ratio of 1.03 ± 0.021.
For GGGGACCATT, the switch fluorescence ratio was 1.01 ± 0.035.
GGGGACCTAG showed a switch fluorescence ratio of 1.01 ± 0.015.
GGGGACGATA gave a switch fluorescence ratio of 1 ± 0.053.
With GGGGACGTCG the switch fluorescence ratio was 0.9972 ± 0.0087.
Sequence GGGGACTCTT has a switch fluorescence ratio of 0.977 ± 0.023.
In the case of GGGGAGAGAA, the switch fluorescence ratio is reported as 0.9855 ± 0.0071.
Work on GGGGAGAGAT yielded a switch fluorescence ratio of 0.999 ± 0.064.
Sequence GGGGAGAGGC has a switch fluorescence ratio of 1.08 ± 0.11.
In the case of GGGGAGAGGT, the switch fluorescence ratio is reported as 1 ± 0.067.
GGGGAGTGCT showed a switch fluorescence ratio of 0.9872 ± 0.004.
Work on GGGGAGTGGG yielded a switch fluorescence ratio of 0.989 ± 0.051.
In the case of GGGGATAGCG, the switch fluorescence ratio is reported as 1 ± 0.018.
GGGGATATCG showed a switch fluorescence ratio of 1.03 ± 0.024.
Sequence GGGGATGTCT has a switch fluorescence ratio of 1.03 ± 0.03.
GGGGATTCAT showed a switch fluorescence ratio of 0.986 ± 0.012.
Work on GGGGATTGAT yielded a switch fluorescence ratio of 1.02 ± 0.039.
For GGGGCAATAT, the switch fluorescence ratio was 3.69 ± 1.9.
For GGGGCAATGT, the switch fluorescence ratio was 1.22 ± 0.05.
GGGGCAGCAG gave a switch fluorescence ratio of 1.02 ± 0.031.
Sequence GGGGCAGGGA has a switch fluorescence ratio of 0.98 ± 0.052.
GGGGCATGTA was tested, and the switch fluorescence ratio was 1 ± 0.019.
GGGGCATTTG showed a switch fluorescence ratio of 0.9834 ± 0.0011.
Sequence GGGGCCACGA has a switch fluorescence ratio of 1.01 ± 0.014.
GGGGCCACTG gave a switch fluorescence ratio of 1.02 ± 0.023.
Work on GGGGCCAGGG yielded a switch fluorescence ratio of 1.04 ± 0.054.
Work on GGGGCCCTTG yielded a switch fluorescence ratio of 0.97602 ± 9.7e-05.
GGGGCCGTCA showed a switch fluorescence ratio of 0.987 ± 0.031.
GGGGCGAACG was tested, and the switch fluorescence ratio was 0.977 ± 0.04.
Work on GGGGCGAGGT yielded a switch fluorescence ratio of 0.9974 ± 0.0041.
GGGGCGCCTC showed a switch fluorescence ratio of 0.992 ± 0.03.
GGGGCGGACT showed a switch fluorescence ratio of 0.952 ± 0.04.
With GGGGCGGATG the switch fluorescence ratio was 0.968 ± 0.013.
With GGGGCGGCTA the switch fluorescence ratio was 0.984 ± 0.029.
GGGGCGGGA was tested, and the switch fluorescence ratio was 1.08 ± 0.016.
Work on GGGGCTAGTT yielded a switch fluorescence ratio of 0.963 ± 0.02.
GGGGCTATAT gave a switch fluorescence ratio of 1.39 ± 0.62.
With GGGGCTGTGG the switch fluorescence ratio was 0.9933 ± 0.0087.
With GGGGCTTGCA the switch fluorescence ratio was 1.02 ± 0.019.
GGGGCTTTTT gave a switch fluorescence ratio of 1 ± 0.036.
For GGGGGAACTA, the switch fluorescence ratio was 0.989 ± 0.019.
GGGGGAACTT showed a switch fluorescence ratio of 0.977 ± 0.032.
GGGGGAAGAC gave a switch fluorescence ratio of 1.04 ± 0.053.
For GGGGGAAGCT, the switch fluorescence ratio was 1.03 ± 0.05.
For GGGGGAAGGT, the switch fluorescence ratio was 0.982 ± 0.032.
In the case of GGGGGAAGTC, the switch fluorescence ratio is reported as 1.01 ± 0.034.
In the case of GGGGGAATAA, the switch fluorescence ratio is reported as 1.54 ± 0.73.
GGGGGAATAG was tested, and the switch fluorescence ratio was 1.05 ± 0.046.
In the case of GGGGGAATGG, the switch fluorescence ratio is reported as 1.11 ± 0.17.
Work on GGGGGAATGT yielded a switch fluorescence ratio of 0.983 ± 0.026.
Sequence GGGGGAATTG has a switch fluorescence ratio of 1.02 ± 0.075.
For GGGGGAATTT, the switch fluorescence ratio was 0.993 ± 0.028.
GGGGGACCGA gave a switch fluorescence ratio of 1.02 ± 0.023.
With GGGGGACGCT the switch fluorescence ratio was 0.972 ± 0.039.
GGGGGACTTC gave a switch fluorescence ratio of 1.005 ± 0.01.
For GGGGGAGAGA, the switch fluorescence ratio was 1.03 ± 0.064.
In the case of GGGGGAGGAA, the switch fluorescence ratio is reported as 0.978 ± 0.026.
GGGGGAGGCA gave a switch fluorescence ratio of 0.966 ± 0.032.
GGGGGAGTGA showed a switch fluorescence ratio of 0.972 ± 0.029.
Work on GGGGGAGTTC yielded a switch fluorescence ratio of 1.02 ± 0.014.
Work on GGGGGATACG yielded a switch fluorescence ratio of 0.997 ± 0.033.
GGGGGATATA showed a switch fluorescence ratio of 1.01 ± 0.021.
GGGGGATCGG gave a switch fluorescence ratio of 1.01 ± 0.022.
GGGGGATGCG was tested, and the switch fluorescence ratio was 1 ± 0.048.
Work on GGGGGATGGA yielded a switch fluorescence ratio of 1.0016 ± 0.0002.
With GGGGGATTAA the switch fluorescence ratio was 1 ± 0.017.
GGGGGCACAG was tested, and the switch fluorescence ratio was 0.992 ± 0.012.
In the case of GGGGGCAGAA, the switch fluorescence ratio is reported as 0.983 ± 0.018.
GGGGGCATAA was tested, and the switch fluorescence ratio was 1.03 ± 0.076.
In the case of GGGGGCATGG, the switch fluorescence ratio is reported as 1 ± 0.02.
Sequence GGGGGCATTG has a switch fluorescence ratio of 0.9933 ± 0.0084.
GGGGGCCAGG showed a switch fluorescence ratio of 1.02 ± 0.073.
For GGGGGCGGCT, the switch fluorescence ratio was 1.03 ± 0.056.
With GGGGGCGGTG the switch fluorescence ratio was 1 ± 0.038.
In the case of GGGGGCTATA, the switch fluorescence ratio is reported as 1.001 ± 0.0094.
Work on GGGGGCTCAG yielded a switch fluorescence ratio of 0.9659 ± 0.0052.
GGGGGCTTAT was tested, and the switch fluorescence ratio was 1.01 ± 0.017.
GGGGGGAACG showed a switch fluorescence ratio of 0.971 ± 0.024.
GGGGGGAAGT was tested, and the switch fluorescence ratio was 1.01 ± 0.022.
In the case of GGGGGGAATT, the switch fluorescence ratio is reported as 1.05 ± 0.1.
GGGGGGACAC gave a switch fluorescence ratio of 1.031 ± 0.0019.
Sequence GGGGGGAGAG has a switch fluorescence ratio of 0.989 ± 0.045.
GGGGGGAGTT gave a switch fluorescence ratio of 0.999 ± 0.038.
With GGGGGGATAG the switch fluorescence ratio was 1 ± 0.031.
In the case of GGGGGGATGG, the switch fluorescence ratio is reported as 1.07 ± 0.23.
For GGGGGGATTC, the switch fluorescence ratio was 1.01 ± 0.019.
With GGGGGGCAAC the switch fluorescence ratio was 1.03 ± 0.099.
In the case of GGGGGGCAGC, the switch fluorescence ratio is reported as 1 ± 0.017.
GGGGGGCATA was tested, and the switch fluorescence ratio was 1.01 ± 0.012.
With GGGGGGCCCA the switch fluorescence ratio was 1.0208 ± 0.00082.
In the case of GGGGGGCCCG, the switch fluorescence ratio is reported as 1.35 ± 0.45.
GGGGGGCCGA was tested, and the switch fluorescence ratio was 1.01 ± 0.03.
GGGGGGCCTA was tested, and the switch fluorescence ratio was 0.988 ± 0.046.
For GGGGGGCGGC, the switch fluorescence ratio was 1.01 ± 0.046.
GGGGGGCTCG gave a switch fluorescence ratio of 0.973 ± 0.064.
